Article PMC9844003, “A pH-dependent anti-CD47 antibody that selectively targets solid tumors and improves therapeutic efficacy and safety” (Journal of Hematology & Oncology, 2023)

How the values were obtained:
[1] = biological target: T1, extracellular domain of CD47 fused to a His(×6)-Avi-tag (Homo sapiens, UniProt Q08722); assay: ELISA; CD47-ECD coated on plates; serial dilutions of phage-scFvs, detected with anti-M13-HRP; pH 7.4 and pH 6.0; details: one partner purified
T1 construct: CD47, extracellular domain; also called CD47-ECD

[2] = biological target: T1, extracellular domain of CD47 fused to a …; assay: ELISA; CD47-ECD coated on plates; phage-scFv site saturation mutants of BC31M4, detected with anti-M13-HRP; pH 6.5 and pH 7.4; details: one partner purified
[3] = biological target: T1, extracellular domain of CD47 fused to a …; assay: ELISA; CD47-ECD coated on plates; serial dilutions of BC31M4 mutants in hIgG1 form; pH 7.4 and pH 6.8; details: both partners purified
[4] = biological target: T2, cell-surface CD47 on Raji, Jurkat and MDA-231 tumor cells (human (endogenous in Raji, Jurkat, …, UniProt Q08722)); assay: flow cytometry on cells; serially diluted antibodies (hIgG1 form) incubated with CHO-CD47 or tumor cells, detected with goat anti-human IgG-FITC; pH 6.8 and pH 7.4 separately; details: one partner purified
T2 construct: CD47 endogenous on human tumor cell lines

[5] = biological target: T3, full-length human CD47 stably expressed on CHO cells (CHO-hCD47) (human, UniProt Q08722); assay: as above; details: one partner purified
T3 construct: full-length human CD47, stably expressed on CHO cells; also called CHO-CD47; cell-surface CD47; source: CHO cells, stably expressing, on cells

[6] = biological target: T1, extracellular domain of CD47 fused to a …; assay: SPR; Biacore T200, 25 °C; anti-human IgG immobilised on a CM5 chip, antibodies (hIgG1 form) captured, twofold serially diluted CD47-ECD injected; pH 7.4 buffer; 1:1 binding model; details: both partners purified
[7] = biological target: T1, extracellular domain of CD47 fused to a …; assay: SPR; Biacore T200, 25 °C; anti-human IgG immobilised on a CM5 chip, antibodies (hIgG1 form) captured, twofold serially diluted CD47-ECD injected; pH 6.8 buffer; 1:1 binding model; details: both partners purified
[8] = biological target: T3, full-length human CD47 stably expressed …; assay: flow cytometry on cells; blocking assay of BC27: serially diluted antibody incubated with cells in the presence of bio-SIRPα-Fc, detected with streptavidin-FITC; pH 6.0, 6.5, 6.9 and 7.4; up to 1 µM antibody; details: one partner purified

T1 sequence (Q08722 whole entry, looked up, the tested form may be a part): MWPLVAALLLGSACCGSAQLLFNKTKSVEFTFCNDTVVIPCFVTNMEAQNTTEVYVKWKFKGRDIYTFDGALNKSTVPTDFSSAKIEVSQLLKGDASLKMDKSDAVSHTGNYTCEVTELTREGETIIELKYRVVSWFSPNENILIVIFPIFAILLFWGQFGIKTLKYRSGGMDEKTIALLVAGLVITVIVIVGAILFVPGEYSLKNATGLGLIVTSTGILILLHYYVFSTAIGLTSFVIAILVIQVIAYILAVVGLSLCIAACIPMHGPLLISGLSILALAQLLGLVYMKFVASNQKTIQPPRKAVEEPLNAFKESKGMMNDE
T3 sequence (Q08722 19-323): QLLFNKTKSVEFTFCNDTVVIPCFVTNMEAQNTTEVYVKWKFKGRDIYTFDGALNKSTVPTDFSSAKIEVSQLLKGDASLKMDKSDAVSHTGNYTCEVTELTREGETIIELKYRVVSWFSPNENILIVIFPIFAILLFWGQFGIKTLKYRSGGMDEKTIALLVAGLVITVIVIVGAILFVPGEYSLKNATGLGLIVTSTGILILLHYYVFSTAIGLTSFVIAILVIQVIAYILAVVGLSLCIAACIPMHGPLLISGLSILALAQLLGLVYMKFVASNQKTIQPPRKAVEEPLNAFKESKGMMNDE
T2 sequence (Q08722 19-323): as above

B1: BC27 (phage-scFv form) (scFv, V domains shown)
VH: QVQLVQSGAEVKKPGASVKVSCKASGYTFTSYGISWVRQAPGQGLEWMGWISAYNGNTNYAQKLQGRVTMTTDTSTSTAYMELRSLRSDDTAVYYCARGKVYFDYWGQGTLVTVSS
VL: EIVLTQSPATLSLSPGERATLSCRASQSLSRNHLAWYQQKPGQPPRLLIHWASTRESGVPDRFSGSGSGTDFTLTISSLQAEDVAVYYCQQYYTASWTFGQGTKVEIK
notes: VH of BC27: as the variable region of the heavy chain of m6 (PDB 7WN8) except in HCDR3; scFv linker of the library; VL of BC27: as the variable region of the light chain of m6 (PDB 7WN8) except in LCDR3
- binding result [1]: binds

B2: BC31M4 (phage-scFv form) with VL H38 replaced by lysine (scFv, V domains shown)
VH: QVQLVQSGAEVKKPGASVKVSCKASGYTFTSYGISWVRQAPGQGLEWMGWISAYNGNTNYAQKLQGRVTMTTDTSTSTAYMELRSLRSDDTAVYYCARGAVYFDYWGQGTLVTVSS
VL: EIVLTQSPATLSLSPGERATLSCRASQSLSRNKLAWYQQKPGQPPRLLIHWASTRESGVPDRFSGSGSGTDFTLTISSLQAEDVAVYYCQQHTQNTWTFGQGTKVEIK
notes: VH of BC31M4: as the variable region of the heavy chain of m6 (PDB 7WN8) with A instead of T at residue 108 of HCDR3 (IMGT numbering); scFv linker; VL of BC31M4 (as the variable region of the light chain of m6, PDB 7WN8) with H38 (LCDR1, IMGT numbering) changed; also called H38K
- binding result [2]: binds

B3: BC31M4 (hIgG1 form) with the 38R/55R substitution (antibody, V domains shown)
VH: QVQLVQSGAEVKKPGASVKVSCKASGYTFTSYGISWVRQAPGQGLEWMGWISAYNGNTNYAQKLQGRVTMTTDTSTSTAYMELRSLRSDDTAVYYCARGAVYFDYWGQGTLVTVSS
VL: EIVLTQSPATLSLSPGERATLSCRASQSLSRNRLAWYQQKPGQPPRLLIRWASTRESGVPDRFSGSGSGTDFTLTISSLQAEDVAVYYCQQHTQNTWTFGQGTKVEIK
notes: VH of BC31M4: as the variable region of the heavy chain of m6 (PDB 7WN8) with A instead of T at residue 108 of HCDR3 (IMGT numbering); constant region of the human IgG1 heavy chain (from the expression vector); VL of BC31M4 (as the variable region of the light chain of m6, PDB 7WN8) with histidine-to-arginine substitutions, IMGT numbering; constant region of the light chain from the hIgG1 …
- binding result [3]: binds

B4: BC31M4 (hIgG1 form) (antibody, V domains shown)
VH: QVQLVQSGAEVKKPGASVKVSCKASGYTFTSYGISWVRQAPGQGLEWMGWISAYNGNTNYAQKLQGRVTMTTDTSTSTAYMELRSLRSDDTAVYYCARGAVYFDYWGQGTLVTVSS
VL: EIVLTQSPATLSLSPGERATLSCRASQSLSRNHLAWYQQKPGQPPRLLIHWASTRESGVPDRFSGSGSGTDFTLTISSLQAEDVAVYYCQQHTQNTWTFGQGTKVEIK
notes: VH of BC31M4: as the variable region of the heavy chain of m6 (BC31M5, PDB 7WN8) with alanine instead of threonine at residue 108 of HCDR3 (IMGT numbering); constant region of the human IgG1 heavy chain (from the expression vector); VL of BC31M4: as the variable region of the light chain of m6 (BC31M5, PDB 7WN8); only one amino acid (heavy chain 108) differs between the two antibodies; constant …
- binding result [4]: binds
- binding result [5]: binds

B5: BC31M4 (phage-scFv form) with VL H107 replaced by arginine (scFv, V domains shown)
VH: QVQLVQSGAEVKKPGASVKVSCKASGYTFTSYGISWVRQAPGQGLEWMGWISAYNGNTNYAQKLQGRVTMTTDTSTSTAYMELRSLRSDDTAVYYCARGAVYFDYWGQGTLVTVSS
VL: EIVLTQSPATLSLSPGERATLSCRASQSLSRNHLAWYQQKPGQPPRLLIHWASTRESGVPDRFSGSGSGTDFTLTISSLQAEDVAVYYCQQRTQNTWTFGQGTKVEIK
notes: VH of BC31M4: as the variable region of the heavy chain of m6 (PDB 7WN8) with A instead of T at residue 108 of HCDR3 (IMGT numbering); scFv linker; VL of BC31M4 (as the variable region of the light chain of m6, PDB 7WN8) with H107 (LCDR3, IMGT numbering) changed
- binding result [2]: binds

B6: BC31M4 (phage-scFv form) with VL H38 replaced by arginine (scFv, V domains shown)
VH: QVQLVQSGAEVKKPGASVKVSCKASGYTFTSYGISWVRQAPGQGLEWMGWISAYNGNTNYAQKLQGRVTMTTDTSTSTAYMELRSLRSDDTAVYYCARGAVYFDYWGQGTLVTVSS
VL: EIVLTQSPATLSLSPGERATLSCRASQSLSRNRLAWYQQKPGQPPRLLIHWASTRESGVPDRFSGSGSGTDFTLTISSLQAEDVAVYYCQQHTQNTWTFGQGTKVEIK
notes: VH of BC31M4: as the variable region of the heavy chain of m6 (PDB 7WN8) with A instead of T at residue 108 of HCDR3 (IMGT numbering); scFv linker; VL of BC31M4 (as the variable region of the light chain of m6, PDB 7WN8) with H38 (LCDR1, IMGT numbering) changed
- binding result [2]: binds

B7: BC31M4 (phage-scFv form) with VL H107 replaced by lysine (scFv, V domains shown)
VH: QVQLVQSGAEVKKPGASVKVSCKASGYTFTSYGISWVRQAPGQGLEWMGWISAYNGNTNYAQKLQGRVTMTTDTSTSTAYMELRSLRSDDTAVYYCARGAVYFDYWGQGTLVTVSS
VL: EIVLTQSPATLSLSPGERATLSCRASQSLSRNHLAWYQQKPGQPPRLLIHWASTRESGVPDRFSGSGSGTDFTLTISSLQAEDVAVYYCQQKTQNTWTFGQGTKVEIK
notes: VH of BC31M4: as the variable region of the heavy chain of m6 (PDB 7WN8) with A instead of T at residue 108 of HCDR3 (IMGT numbering); scFv linker; VL of BC31M4 (as the variable region of the light chain of m6, PDB 7WN8) with H107 (LCDR3, IMGT numbering) changed; also called H107K
- binding result [2]: binds

B8: BC31M4 (hIgG1 form) with the 55R/107R substitution (antibody, V domains shown)
VH: QVQLVQSGAEVKKPGASVKVSCKASGYTFTSYGISWVRQAPGQGLEWMGWISAYNGNTNYAQKLQGRVTMTTDTSTSTAYMELRSLRSDDTAVYYCARGAVYFDYWGQGTLVTVSS
VL: EIVLTQSPATLSLSPGERATLSCRASQSLSRNHLAWYQQKPGQPPRLLIRWASTRESGVPDRFSGSGSGTDFTLTISSLQAEDVAVYYCQQRTQNTWTFGQGTKVEIK
notes: as for B3
- binding result [3]: binds

B9: BC31M4 (phage-scFv form), wild type (scFv, V domains shown)
VH: QVQLVQSGAEVKKPGASVKVSCKASGYTFTSYGISWVRQAPGQGLEWMGWISAYNGNTNYAQKLQGRVTMTTDTSTSTAYMELRSLRSDDTAVYYCARGAVYFDYWGQGTLVTVSS
VL: EIVLTQSPATLSLSPGERATLSCRASQSLSRNHLAWYQQKPGQPPRLLIHWASTRESGVPDRFSGSGSGTDFTLTISSLQAEDVAVYYCQQHTQNTWTFGQGTKVEIK
notes: VH of BC31M4: as the variable region of the heavy chain of m6 (PDB 7WN8) with A instead of T at residue 108 of HCDR3 (IMGT numbering); scFv linker; VL of BC31M4: as the variable region of the light chain of m6 (PDB 7WN8); also called wild-type BC31M4
- binding result [2]: binds

B10: BC31M5 (hIgG1 form) (antibody, V domains shown)
VH: QVQLVQSGAEVKKPGASVKVSCKASGYTFTSYGISWVRQAPGQGLEWMGWISAYNGNTNYAQKLQGRVTMTTDTSTSTAYMELRSLRSDDTAVYYCARGTVYFDYWGQGTLVTVSS
VL: EIVLTQSPATLSLSPGERATLSCRASQSLSRNHLAWYQQKPGQPPRLLIHWASTRESGVPDRFSGSGSGTDFTLTISSLQAEDVAVYYCQQHTQNTWTFGQGTKVEIK
notes: VH of BC31M5: as the variable region of the heavy chain of m6 (PDB 7WN8); constant region of the human IgG1 heavy chain (from the expression vector); VL of BC31M5: as the variable region of the light chain of m6 (PDB 7WN8); constant region of the light chain from the hIgG1 light-chain vector; IgG1
- pH-dependence (ratio of KD at pH 7.4 to KD at pH 6.8) [6]: ~1.9 fold
- fold higher binding affinity than BC31M4 at pH 6.8 [7]: ~3 fold

B11: BC27 (hIgG1 form) (antibody, V domains shown)
VH: QVQLVQSGAEVKKPGASVKVSCKASGYTFTSYGISWVRQAPGQGLEWMGWISAYNGNTNYAQKLQGRVTMTTDTSTSTAYMELRSLRSDDTAVYYCARGKVYFDYWGQGTLVTVSS
VL: EIVLTQSPATLSLSPGERATLSCRASQSLSRNHLAWYQQKPGQPPRLLIHWASTRESGVPDRFSGSGSGTDFTLTISSLQAEDVAVYYCQQYYTASWTFGQGTKVEIK
notes: VH of BC27, parent of BC31M4 and BC31M5: as the variable region of the heavy chain of m6 (PDB 7WN8) except in HCDR3; constant region of the human IgG1 heavy chain (from the expression vector); VL of BC27: as the variable region of the light chain of m6 (PDB 7WN8) except in LCDR3; constant region of the light chain from the hIgG1 light-chain vector; IgG1; Random mutations were introduced only into …
- binding result [8]: binds
